Test results: article PMC8564726, “Heterodimerization of H3K9 histone methyltransferases G9a and GLP activates methyl reading and writing capabilities” (The Journal of Biological Chemistry, 2021)

B1: G9a ANK-SET homodimer (complex)
chain: DAPGRADTSQPSARMRGHGEPRRPPCDPLADTIDSSGPSLTLPNGGCLSAVGLPPGPGREALEKALVIQESERRKKLRFHPRQLYLSVKQGELQKVILMLLDNLDPNFQSDQQSKRTPLHAAAQKGSVEICHVLLQAGANINAVDKQQRTPLMEAVVNNHLEVARYMVQLGGCVYSKEEDGSTCLHHAAKIGNLEMVSLLLSTGQVDVNAQDSGGWTPIIWAAEHKHIDVIRMLLTRGADVTLTDNEENICLHWASFTGSAAIAEVLLNAQCDLHAVNYHGDTPLHIAARESYHDCVLLFLSRGANPELRNKEGDTAWDLTPERSDVWFALQLNRKLRLGVGNRAVRTEKIICRDVARGYENVPIPCVNGVDGEPCPEDYKYISENCETSTMNIDRNITHLQHCTCVDDCSSSNCLCGQLSIRCWYDKDGRLLQEFNKIEPPLIFECNQACSCWRSCKNRVVQSGIKVRLQLYRTAKMGWGVRALQTIPQGTFICEYVGELISDAEADVREDDSYLFDLDNKDGEVYCIDARYYGNISRFINHLCDPNIIPVRVFMLHQDLRFPRIAFFSSRDIRTGEELGFDYGDRFWDIKSKYFTCQCGSEKCKHSAEAIALEQSRLARLDPHPELLPDLSSLPPINT
modifications: not checked
B2: N-terminally Maltose-Binding Protein tagged G9a ANK-SET (domain or fragment)
chain: B1 chain
B3: GLP ANK-SET homodimer (complex)
chain: QEKSLAAEGRADTTTGSIAGAPEDERSQSTAPQAPECFDPAGPAGLVRPTSGLSQGPGKETLESALIALDSEKPKKLRFHPKQLYFSARQGELQKVLLMLVDGIDPNFKMEHQSKRSPLHAAAEAGHVDICHMLVQAGANIDTCSEDQRTPLMEAAENNHLDAVKYLIKAGAQVDPKDAEGSTCLHLAAKKGHYDVVQYLLSNGQMDVNCQDDGGWTPMIWATEYKHVELVKLLLSKGSDINIRDNEENICLHWAAFSGCVDIAEILLAAKCDLHAVNIHGDSPLHIAARENRYDCVVLFLSRDSDVTLKNKEGETPLQCASLSSQVWSALQMSKALRDSAPDKPVAVEKTVSRDIARGYERIPIPCVNAVDSELCPTNYKYVSQNCVTSPMNIDRNITHLQYCVCVDDCSSSTCMCGQLSMRCWYDKDGRLLPEFNMAEPPLIFECNHACSCWRNCRNRVVQNGLRARLQLYRTQDMGWGVRSLQDIPLGTFVCEYVGELISDSEADVREEDSYLFDLDNKDGEVYCIDARFYGNVSRFINHHCEPNLVPVRVFMSHQDLRFPRIAFFSTRLIQAGEQLGFDYGERFWDVKGKLFSCRCGSSKCRHSSAALAQRQASAAQEPQENGLPDTSSAAAADPL
modifications: not checked
B4: GLP ANK-SET, tags removed (domain or fragment)
chain: B3 chain
modifications: not checked
B5: G9a-GLP ANK-SET heterodimer (complex)
chain 1: B1 chain
chain 2: B3 chain
modifications: not checked
B6: N-terminally Maltose-Binding Protein tagged GLP ANK-SET (domain or fragment)
chain: B3 chain
modifications: not checked

Columns and labels:
[1] = biological target: unmethylated mononucleosome (H3K9me0), 147 bp 601 DNA 5'-fluorescein-labeled; experiment: fluorescence polarisation; core mononucleosomes (147 bp 601 DNA, 5' fluorescein) at 150 nM, enzyme titrated; 100 mM Tris pH 8, 100 mM KCl, 1 mM MgCl2, 20 μM ZnSO4, 10 mM BME, 0.1% NP-40
[2] = biological target: N-terminally 6xHis-tagged G9a ANK-SET; experiment: pull-down; His:G9a coexpressed with MBP:G9a or MBP:GLP in E. coli; sequential cobalt and amylose resin purification; SyPRO Red stained bands quantified
[3] = biological target: fluoresceinated H3(1-20) K9me2 peptide, P68431; experiment: fluorescence polarisation; fluoresceinated H3(1-20) K9me1 or K9me2 peptide at 150 nM, enzyme titrated; 100 mM Tris pH 8, 100 mM KCl, 1 mM MgCl2, 20 μM ZnSO4, 10 mM BME, 0.1% NP-40
[4] = biological target: G9a ANK-SET, tags removed; experiment: SEC-MALS; His and MBP tags removed; injected at 10 μM, Shodex KW804 column, 0.4 ml per minute

Binder	Kd [1] [µM]	stoichiometry N (MBP protein per His:G9a) [2]	also measured
B1	6 to 7		
B2		1	
B3	26.3		fold reduction of binding (reference not clearly named) [3]: 12.5 times
B4			stoichiometry N [4]: 1 GLP per G9a
B5	6 to 7		
B6		1	
